The source of these data is publication PMC6006435.

For orientation: stoichiometry N means the number of molecules, sites or subunits per partner or assembly.

The test concerns the target Ageratum yellow vein virus capsid protein (CP), in the geminate virus particle (Ageratum yellow vein virus). In words: cryo-EM structure; single-particle cryo-EM of purified AYVV geminate particles, D5 symmetry, 3.3 Å; particles in 100 mM sodium phosphate pH 7.0; capsid holds the genomic ssDNA.

In turn, “Ageratum yellow vein virus capsid protein (CP), in the geminate virus particle (natural protein)” had a stoichiometry N of 110.
